Test results as given in patent US20200179510A1, “LOW DENSITY LIPOPROTEIN RECEPTOR RELATED PROTEIN 5 INHIBITION SUPPRESSES TUMOR FORMATION” (YALE UNIVERSITY, priority 2017, published 2020).

How the values were obtained:
LRP6 = biological target: T1, LRP6 (Homo sapiens, UniProt O75581); experiment: LRP internalization assay, LRP6; type: cell-based; settings: HEK293 cells, DKK2 4 nM
T1 construct: endogenous in cells; host or cells: HEK293
Procedure: (§1) HEK293 cells were treated with mock or recombinant mouse DKK2 protein (4 nM) in culture medium for duration indicated. The cells were washed with pre-cold PBS and cell surface proteins were biotinylated with 0.5 mg/ml of EZ-Link Sulfo-NHS-SS-Biotin (Thermo Fisher, 21445) in a PBS buffer on ice for 30 min. The reaction was stopped by addition of PBS containing ice-cold 50 mM NH4Cl, followed by repeated washes with ice-cold PBS. The cells were then lysed with in a buffer containing 1.25% Triton X-100, 0.25% SDS, 50 mM Tris HCl PH8.0, 150 mM NaCl, 5 mM EDTA, 5 mg/ml iodoacetamide, 10 ug/ml PMSF, and the Roche proteinase inhibitor cocktail. After centrifugation, aliquots were taken as lysate controls, and the rest of supernatants were used in pull-down with NeutrAvidin beads (Thermo Fisher, 29200), followed by analysis by Western blotting.

[1] = system: CD8+ intraepithelial cells from intestines; experiment: Mouse primary intraepithelial lymphocytes; type: cell-based; settings: IL-15, 10 nM DKK2, 24 hour
Procedure: (§2) Mouse primary NK and CD8+ T cells were isolated from the spleens by using the NK cell and CD8+ T cell isolation kits according to the manufacturer's instructions (Miltenyi Biotec #130-090-864 and #130-104-075), respectively. Primary NK cells were cultured in RPMI-1640 (Gibco, 11875-093) supplemented with 10% FBS, penicillin (100 U/ml), streptomycin (100 μg/ml), 2-mercaptoethanol (500 μM) and HEPES (10 mM) at 37° C. supplemented with 5% CO2 in the presence of recombinant murine IL-15 (50 ng/ml) for 24 hours before treatment with DKK2, CHIR99021, or WNT3A. CD8+ T cells were cultured in the same culture medium and condition as NK cells, but supplemented with IL-15 (200 ng/ml) and IL-15 Rα (1 μg/ml recombinant Mouse IL-15 receptor alpha Fc chimera Protein from R&D) for 96 hours before DKK2 treatment. Mouse primary intraepithelial lymphocytes (IELs) were prepared as described in (Little et al., The Journal of Immunology 175, 6713-6722 (2005) and Li et al. Infect Immun 80, 565-574 (2012)). […]

[2] = system: tumor infiltrated leukocytes (CD8+ and NK1.1+ cells); experiment: Flow cytometry of tumor infiltrated leukocytes, MC38 tumors; type: in vivo, mouse; settings: MC38, intratumoral DKK2 protein 600 ng/25 μl/tumor, three times every 8 hours
Procedure: Tumors were minced using scissors and scalpel blades and incubated with a digestion buffer [RPMI1640, 5% FBS, 1% PS, 25 mM HEPES and 300 U collagenase (Sigma C0130)] in a shaker for 2 h at 37° C. Disperse cells were filtered through a 70 μm cell strainer to eliminate clumps and debris. After centrifugation for 5 minutes (500×g) at 4° C., cell pellets were resuspended in the Red Blood Cell Lysis Buffer (Sigma R7757) and incubated at RT for 5 min to remove erythrocytes. Cells were pelleted again, resuspended and incubated in 0.05% Trypsin/EDTA at 37° C. for 5 min, followed by DNA digestion with the addition of Type I DNase (1 μg/ml final, Sigma D4263) for 5 min. Trypsin digestion was stopped by the addition of FBS to 5%, and cells were filtered again by a 40 μm cell strainer. Finally, the cells were pelleted again and resuspended in PBS at a concentration of […].
Cells in single cell suspension were fixed with 2% PFA (Santa-Cruz sc-281692). After washing with a Flow Cytometry Staining Buffer (eBioscience 00-4222-26), cells were stained with antibodies for cell surface markers for 1 hour on ice in the dark. For staining of intracellular proteins, the cells were washed and resuspended in the Permeabilization Buffer (BD 554723) and stained by antibodies in the Permeabilization Buffer for 1 hour on ice in the dark. […]

[3] = system: mouse primary CD8+ T cells; experiment: Mouse primary CD8+ T cells; type: cell-based
Procedure: as §2

[4] = system: phospho-STAT5 nuclear localization; experiment: Immunocytostaining of phospho-STAT5 localization in NK cells; type: cell-based, mouse
Procedure: They were then placed on poly-lysine coated coverslips and incubated for 30 min at room temperature. Cells were fixed with 4% PFA for 10 min at room temperature and permeabilized with ice-cold methanol for 10 min at −20° C. After rinsed with PBS for 3 times, cells were blocked with a blocking buffer (5% normal donkey serum and 0.5% triton in PBS) for 1 hr at room temperature. Primary antibodies were then diluted in PBS with 0.5% BSA and applied to cells with overnight incubation at 4° C. Cells were rinsed with PBS for 3 times and incubated with diluted fluorochrome-conjugated secondary antibodies (in PBS with 1% BSA) for 1 hr at room temperature. Finally, cells were rinsed with PBS for 3 times and mounted with Prolong Gold Antifade solution (Thermo Fisher) for confocal microscopy.

human NK cells = experiment: Human NK cells cultured with IL-15; type: cell-based; settings: human IL-15 50 ng/ml, 10 nM human DKK2, 24 hour
Procedure: Peripheral blood mononuclear cells from normal humans were purchased from ZenBio (SER-PBMC-200). Human NK cells were isolated from the PBMCs by using the human NK cell isolation kit according to the manufacturer's instruction (Miltenyi Biotec #130-092-657). Human NK cells were cultured in RPMI-1640 (Gibco, 11875-093) supplemented with 10% heat-inactivated FBS, penicillin (100 U/ml), streptomycin (100 μg/ml), 2-mercaptoethanol (500 μM) and HEPES (10 mM) at 37° C. supplemented with 5% CO2 in the presence of recombinant human IL-15 (50 ng/ml) before treatment with recombinant human DKK2 protein.

[5] = system: Wnt reporter gene TOPFlash; experiment: Wnt reporter gene (TOPFlash) assay in HEK293 cells; type: cell-based
Procedure: The Stat5 reporter assays were done in HEK293T cells for activated JAK1-induced activity or in those stably expressing JAK3, IL2/15Rβ and the common receptor γ subunit for IL15 induced activity. Cells were seeded at 8×10^4 cells per well in 48 well plate. The next day, cells were transfected by Lipofectamine 2000 (Invitrogen) with the pGL4.52-STAT5-Luciferase (Promega) and tagRFP (internal control) plasmids together with other plasmids expressing genes of interest. The total amount of plasmid was kept at 125 ng per well. The cells were added 24 hours after transfection with IL15/IL15Rα-Fc complex or mock. Six hours later, the cells were lysed and subjected to RFP fluorescence and luciferase luminescence measurement using an Envision Multilabel plate reader. The reporter gene activity is shown after being normalized against RFP readings. The LEF reporter assay was carried out in HEK293 cells that were transfected with the TOPFlash and GFP plasmids. The rest is the same as above. The reporter gene activity is shown after being normalized against GFP readings.
A functional mouse monoclonal anti-DKK2 antibody (5F8) was developed to specifically target and neutralize DKK2, but to not cross react with DKK-1. […]

[6] = system: primary mouse NK cells with MC38 or YUMM1.7 cells; experiment: NK and tumor cell co-culture; type: cell-based; settings: NK cells pre-treated with DKK2 8 nM 24 hrs, MC38 7:1
Procedure: Primary NK cells were isolated from the spleens as described above and cultured in the presence of 50 ng/ml recombinant murine IL-15 for 24 hours. Meanwhile, tumor cells were plated in the 96 well plate for overnight. NK cells were added into the tumor cells at 7:1 radio in the presence of the IgG3 antibody or anti-DKK2 5F8 for 9 hours at 37° C. For testing the effect of DKK2 in co-culture, isolated NK cells were cultured in the presence of 50 ng/ml recombinant murine IL-15 for 24 hours and then cultured in the presence or absence of DKK2 for another 24 hours before the NK cells were added to pre-seeded MC38 cells at 7:1 (NK:MC38) radio. The numbers of live tumor cells were determined by a Guava flow cytometer (EMDmillipore), whereas the cell apoptosis was assessed by flow cytometry using an Annexin V apoptosis detection kit (eBioscience, 88-8007).

primary mouse NK cells = experiment: IL-15-cultured primary mouse NK cells (flow cytometry, Western); type: cell-based
Procedure: Cells in single cell suspension were fixed with 2% PFA (Santa-Cruz sc-281692). After washing with a Flow Cytometry Staining Buffer (eBioscience 00-4222-26), cells were stained with antibodies for cell surface markers for 1 hour on ice in the dark. For staining of intracellular proteins, the cells were washed and resuspended in the Permeabilization Buffer (BD 554723) and stained by antibodies in the Permeabilization Buffer for 1 hour on ice in the dark. The cells were then pelleted and resuspended in the Flow Cytometry Staining Buffer for flow cytometry analysis.
Mouse primary NK and CD8+ T cells were isolated from the spleens by using the NK cell and CD8+ T cell isolation kits according to the manufacturer's instructions (Miltenyi Biotec #130-090-864 and #130-104-075), respectively. Primary NK cells were cultured in RPMI-1640 (Gibco, 11875-093) supplemented with 10% FBS, penicillin (100 U/ml), streptomycin (100 μg/ml), 2-mercaptoethanol (500 μM) and HEPES (10 mM) at 37° C. supplemented with 5% CO2 in the presence of recombinant murine IL-15 (50 ng/ml) for 24 hours before treatment with DKK2, CHIR99021, or WNT3A. CD8+ T cells were cultured in the same culture medium and condition as NK cells, but supplemented with IL-15 (200 ng/ml) and IL-15 Rα (1 μg/ml recombinant Mouse IL-15 receptor alpha Fc chimera Protein from R&D) for 96 hours before DKK2 treatment. Mouse primary intraepithelial lymphocytes (IELs) were prepared as described in (Little et al., The Journal of Immunology 175, 6713-6722 (2005) and Li et al. Infect Immun 80, 565-574 (2012)). In brief, the small intestine was everted, divided into four pieces, and washed twice in phosphate-buffered saline (PBS) containing 100 U/ml penicillin/streptomycin The specimens were then incubated with stirring at 37° C. in prewarmed Ca2+ and Mg2+-free Hanks' solution containing 100 U/ml penicillin-streptomycin, 5% fetal calf serum (FCS), 2 mM dithiothreitol (DTT), and 5 mM EDTA for 30 min, followed by vigorous shaking for 30 s. The supernatants were passed over two nylon wool columns to remove undigested tissue debris. The lymphocytes obtained were pooled and enriched on a discontinuous (40% and 70%) Percoll density gradient. Cells at the interface between the 40% and […], fractions (IELs) were collected for treatment with IL-15 (200 ng/ml) and DKK2 (200 ng/ml), followed by flow analysis.

LRP5 = biological target: T2, LRP5 (Homo sapiens, UniProt O75197); experiment: LRP internalization assay, LRP5; type: cell-based; settings: HEK293 cells, DKK2 4 nM
T2 construct: endogenous in cells; host or cells: HEK293
Procedure: as §1

T1 sequence (O75581 20-1613): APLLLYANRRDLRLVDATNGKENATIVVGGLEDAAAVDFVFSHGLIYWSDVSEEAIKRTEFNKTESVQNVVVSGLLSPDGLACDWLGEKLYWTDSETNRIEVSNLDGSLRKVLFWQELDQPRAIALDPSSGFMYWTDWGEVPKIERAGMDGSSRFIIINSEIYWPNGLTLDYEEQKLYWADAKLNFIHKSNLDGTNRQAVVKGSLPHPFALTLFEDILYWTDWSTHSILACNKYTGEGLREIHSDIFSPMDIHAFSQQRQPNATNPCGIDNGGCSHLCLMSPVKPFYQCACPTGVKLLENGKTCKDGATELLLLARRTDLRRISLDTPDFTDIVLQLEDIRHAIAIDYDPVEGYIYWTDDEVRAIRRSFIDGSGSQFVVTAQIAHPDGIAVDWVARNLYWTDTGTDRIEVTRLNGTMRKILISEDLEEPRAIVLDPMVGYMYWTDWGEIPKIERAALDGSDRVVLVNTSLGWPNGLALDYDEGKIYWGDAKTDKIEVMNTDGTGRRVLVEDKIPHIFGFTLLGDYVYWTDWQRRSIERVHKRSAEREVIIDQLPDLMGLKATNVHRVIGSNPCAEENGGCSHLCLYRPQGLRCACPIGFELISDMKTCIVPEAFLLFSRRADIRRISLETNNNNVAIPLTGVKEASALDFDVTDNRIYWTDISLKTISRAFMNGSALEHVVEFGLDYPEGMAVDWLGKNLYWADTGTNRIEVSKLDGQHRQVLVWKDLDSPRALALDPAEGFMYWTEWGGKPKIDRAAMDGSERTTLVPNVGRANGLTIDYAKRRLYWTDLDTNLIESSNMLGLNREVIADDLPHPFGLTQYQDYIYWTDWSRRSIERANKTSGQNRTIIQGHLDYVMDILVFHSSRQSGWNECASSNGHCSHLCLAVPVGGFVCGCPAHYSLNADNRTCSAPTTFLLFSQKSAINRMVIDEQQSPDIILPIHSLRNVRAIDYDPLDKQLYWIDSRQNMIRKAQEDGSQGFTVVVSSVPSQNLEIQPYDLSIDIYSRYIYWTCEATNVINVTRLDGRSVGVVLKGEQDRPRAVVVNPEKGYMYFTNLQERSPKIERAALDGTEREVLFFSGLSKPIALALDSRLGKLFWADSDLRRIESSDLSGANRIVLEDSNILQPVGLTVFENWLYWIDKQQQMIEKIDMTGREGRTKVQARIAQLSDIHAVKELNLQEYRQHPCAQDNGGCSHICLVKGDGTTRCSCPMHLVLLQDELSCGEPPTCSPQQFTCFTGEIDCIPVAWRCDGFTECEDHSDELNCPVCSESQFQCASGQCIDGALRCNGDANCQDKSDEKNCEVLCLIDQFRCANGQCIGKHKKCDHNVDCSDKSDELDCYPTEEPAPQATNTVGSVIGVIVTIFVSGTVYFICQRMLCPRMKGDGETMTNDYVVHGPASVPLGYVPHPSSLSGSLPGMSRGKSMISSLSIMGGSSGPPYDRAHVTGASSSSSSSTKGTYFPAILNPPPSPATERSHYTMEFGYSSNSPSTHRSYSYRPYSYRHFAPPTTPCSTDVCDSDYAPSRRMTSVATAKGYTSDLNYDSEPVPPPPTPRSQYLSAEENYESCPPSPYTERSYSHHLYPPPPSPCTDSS
T2 sequence (O75197 32-1615): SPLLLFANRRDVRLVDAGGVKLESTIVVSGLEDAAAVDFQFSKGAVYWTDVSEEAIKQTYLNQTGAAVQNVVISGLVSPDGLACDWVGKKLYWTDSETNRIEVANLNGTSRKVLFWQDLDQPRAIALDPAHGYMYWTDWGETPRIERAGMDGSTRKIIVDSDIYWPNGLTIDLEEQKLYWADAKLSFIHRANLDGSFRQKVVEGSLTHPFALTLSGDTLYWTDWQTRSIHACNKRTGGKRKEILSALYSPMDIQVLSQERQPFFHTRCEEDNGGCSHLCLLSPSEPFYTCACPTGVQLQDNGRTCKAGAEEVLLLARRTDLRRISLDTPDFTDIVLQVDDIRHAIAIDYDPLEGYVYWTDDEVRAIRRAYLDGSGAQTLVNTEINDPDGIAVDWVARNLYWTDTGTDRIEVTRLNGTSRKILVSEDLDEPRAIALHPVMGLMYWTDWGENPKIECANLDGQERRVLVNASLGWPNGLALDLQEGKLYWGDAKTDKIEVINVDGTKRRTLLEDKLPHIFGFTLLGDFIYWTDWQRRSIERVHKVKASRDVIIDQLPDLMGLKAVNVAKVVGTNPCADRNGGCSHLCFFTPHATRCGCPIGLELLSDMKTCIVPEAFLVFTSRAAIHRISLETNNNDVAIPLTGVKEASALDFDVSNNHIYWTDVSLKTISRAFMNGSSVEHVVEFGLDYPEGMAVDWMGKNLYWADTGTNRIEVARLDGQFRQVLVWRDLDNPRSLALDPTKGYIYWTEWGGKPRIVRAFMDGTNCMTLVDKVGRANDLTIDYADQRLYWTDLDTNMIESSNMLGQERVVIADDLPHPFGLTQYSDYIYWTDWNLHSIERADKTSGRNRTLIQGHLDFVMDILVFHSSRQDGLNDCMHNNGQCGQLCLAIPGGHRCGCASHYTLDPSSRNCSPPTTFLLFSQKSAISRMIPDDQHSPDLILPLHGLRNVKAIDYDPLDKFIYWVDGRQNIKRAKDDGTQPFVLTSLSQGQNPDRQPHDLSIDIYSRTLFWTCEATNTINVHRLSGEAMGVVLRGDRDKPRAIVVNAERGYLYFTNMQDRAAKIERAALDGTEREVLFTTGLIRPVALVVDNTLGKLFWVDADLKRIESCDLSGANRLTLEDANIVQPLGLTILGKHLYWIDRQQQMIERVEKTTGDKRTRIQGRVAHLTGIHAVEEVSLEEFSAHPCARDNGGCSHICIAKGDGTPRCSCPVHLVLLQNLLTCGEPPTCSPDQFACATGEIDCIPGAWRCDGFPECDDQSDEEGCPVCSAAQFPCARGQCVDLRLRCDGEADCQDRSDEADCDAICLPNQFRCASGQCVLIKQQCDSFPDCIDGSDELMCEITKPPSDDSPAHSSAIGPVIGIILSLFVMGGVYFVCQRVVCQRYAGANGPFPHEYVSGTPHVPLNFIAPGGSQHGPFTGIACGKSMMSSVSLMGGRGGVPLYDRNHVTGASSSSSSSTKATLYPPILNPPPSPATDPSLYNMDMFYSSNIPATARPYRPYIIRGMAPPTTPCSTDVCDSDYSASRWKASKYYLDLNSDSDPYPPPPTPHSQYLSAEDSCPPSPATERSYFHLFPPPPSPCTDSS

internalization of LRP6 (LRP6): not LRP6
internalization of LRP5 (LRP5): induces internalization of LRP5
B1: DKK2: Recombinant Dickkopf 2 protein (mouse; human for human NK cells), also used as conditioned medium (protein)
chain: KLNSIKSSLGGETPAQSANRSAGMNQGLAFGGSKKGKSLGQAYPCSSDKECEVGRYCHSPHQGSSACMLCRRKKKRCHRDGMCCPGTRCNNGICIPVTESILTPHIPALDGTRHRDRNHGHYSNHDLGWQNLGRPHSKMPHIKGHEGDPCLRSSDCIDGFCCARHFWTKICKPVLHQGEVCTKQRKKGSHGLEIFQRCDCAKGLSCKVWKDATYSSKARLHVCQKI
activation of CD8+ intraepithelial cells [1]: directly suppresses
tumor immune responses elicited by PD-1 blockade [2]: inhibited PD-1 blockade-induced increases in the numbers of tumor-infiltrated CD45+ and CD8+ cells and activation of CD8+ and NK cells
T cell receptor-mediated activation of primary T cells [3]: does not inhibit T cell receptor-mediated activation
IL-15-mediated activation of mouse primary CD8+ T cells ([3]; IL-15+IL15Rα-Fc 4 days, DKK2 10 nM 24 hours): directly suppresses mouse primary CD8+
co-localization of phospho-STAT5 with EEA1 ([4]; DKK2-treated NK cells): partially co-localized with early endosome marker
localization of phospho-STAT5 in NK cells ([4]; IL-15, DKK2-treated primary NK cells): cytosolic localization of phospho-STAT5 was readily detected
phospho-STAT5 nuclear localization in NK cells lacking LRP5 ([4]; LRP5-/- NK cells): failed to cause impairment of phospho-STAT5 nuclear localization
granzyme B expression in human NK cells (human NK cells): inhibit granzyme B expression in human NK cells
Wnt reporter gene activity ([5]; DKK2 5 nM, Wnt3a 2 nM, CHIR 1 μM, 6 hrs (FIG. 10D)): inhibited
Wnt reporter activity ([5]; HEK293, TOPFlash, conditioned medium (FIG. 1E)): inhibited Wnt signaling
ability of pre-treated NK cells to cause tumor cell apoptosis and death [6]: reduced ability to cause tumor cell apoptosis and death
granzyme B (Western) (primary mouse NK cells; DKK2-treated samples): reduced granzyme B
perforin (Western) (primary mouse NK cells; DKK2-treated samples): reduced perforin
phosphorylated STAT5, ERK and AKT stimulated by IL-15 (primary mouse NK cells; DKK2 treatment, Western): No notable changes in phosphorylated STAT5, ERK, and AKT
dose dependence of inhibition of NK cell activation (primary mouse NK cells; FIG. 4F): dose-dependent
granzyme B and NK activation markers (primary mouse NK cells; IL-15 50 ng/ml 24 hrs, then DKK2 8 nM 24 hours): significant reductions in granzyme B as well as a number of other NK activation markers, including CD69, IFNY, CD107a, and CD314
activation of LRP5-deficient NK cells (primary mouse NK cells; LRP5-/- NK cells): failed to inhibit
activation of primary NK cells lacking LRP6 (primary mouse NK cells; Lrp6-/- NK cells): could still inhibit the activation
